# Target: T1, GST-PIL15 (Oryza sativa (rice), UniProt Q0JNI9 1-637)
# T1 sequence: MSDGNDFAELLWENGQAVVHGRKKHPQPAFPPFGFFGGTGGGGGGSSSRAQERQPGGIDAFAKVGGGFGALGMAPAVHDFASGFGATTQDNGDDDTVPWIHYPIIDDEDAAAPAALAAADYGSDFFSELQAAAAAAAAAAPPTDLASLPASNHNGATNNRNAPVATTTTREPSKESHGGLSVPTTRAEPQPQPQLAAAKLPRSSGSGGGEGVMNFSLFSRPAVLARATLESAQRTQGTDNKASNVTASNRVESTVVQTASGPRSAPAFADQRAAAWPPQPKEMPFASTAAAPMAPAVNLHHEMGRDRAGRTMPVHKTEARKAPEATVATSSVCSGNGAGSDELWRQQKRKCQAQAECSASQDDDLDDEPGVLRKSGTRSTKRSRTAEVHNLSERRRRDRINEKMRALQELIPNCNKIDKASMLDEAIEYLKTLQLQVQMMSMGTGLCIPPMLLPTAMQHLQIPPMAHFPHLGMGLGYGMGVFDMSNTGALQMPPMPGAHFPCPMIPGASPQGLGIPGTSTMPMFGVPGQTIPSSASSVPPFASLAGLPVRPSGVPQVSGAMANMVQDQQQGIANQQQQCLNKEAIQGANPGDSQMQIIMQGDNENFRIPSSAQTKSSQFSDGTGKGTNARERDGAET
# Test: EMSA
binder,measurement,value
PIL15 EMSA probe (AMT1;2 promoter PBE-box) (dsDNA) DNA 1: AGGATTTCATGTGTTTTGGT DNA 2: ACCAAAACACATGAAATCCT,binding result,binds

# Reference: paper PMC12018839
